Article PMC6150406, “Adding an Artificial Tail—Anchor to a Peptide-Based HIV-1 Fusion Inhibitor for Improvement of Its Potency and Resistance Profile” (Molecules : A Journal of Synthetic Chemistry and Natural …, 2017)

Experiments:
[1] = molecular target: NHR peptide N46 (aa 536-581 of NHR) (HIV-1) (UniProt P04578); assay: ELISA; inhibition of 6-HB formation between N46 and C34
[2] = molecular target: gp41 E49K/N126K (HP23-resistant HIV-1 strain) (HIV-1)
[3] = molecular target: gp41 of the WT virus of the T20-resistant panel (HIV-1)
[4] = molecular target: gp41 V38A, N42D (T20-resistant HIV-1 strain) (HIV-1)
[5] = molecular target: gp41 D36G/E49K/N126K (HP23-resistant HIV-1 strain) (HIV-1)
[6] = molecular target: gp41 of the wild-type virus of the HP23-resistant panel (HIV-1)
[7] = molecular target: gp41 L34S/D36G/E49K/E136G (HP23-resistant HIV-1 strain) (HIV-1)
[8] = molecular target: gp41 E49K (HP23-resistant HIV-1 strain) (HIV-1)
[9] = molecular target: gp41 V38A (T20-resistant HIV-1 strain) (HIV-1)
[10] = molecular target: gp41 V38E, N42S (T20-resistant HIV-1 strain) (HIV-1)
[11] = molecular target: gp41 V38A, N42T (T20-resistant HIV-1 strain) (HIV-1)
[12] = molecular target: gp41 Q79E (T2635-resistant HIV-1 strain) (HIV-1)
[13] = molecular target: gp41 Q79E/N126K (T2635-resistant HIV-1 strain) (HIV-1)
[14] = molecular target: gp41 H3C (T2635-resistant HIV-1 strain) (HIV-1)
[15] = molecular target: gp41 N113E (T2635-resistant HIV-1 strain) (HIV-1)
[16] = molecular target: gp41 N126K (T2635-resistant HIV-1 strain) (HIV-1)
[17] = molecular target: gp41 A6V (T2635-resistant HIV-1 strain) (HIV-1)
[18] = molecular target: gp41 Q66R (T2635-resistant HIV-1 strain) (HIV-1)
[19] = molecular target: gp41 of the wild-type virus of the T2635-resistant panel (HIV-1)
[20] = molecular target: gp41 Q66R/N113E (T2635-resistant HIV-1 strain) (HIV-1)
[21] = molecular target: gp41 K90E/N126K (T2635-resistant HIV-1 strain) (HIV-1)
[22] = molecular target: gp41 K90E (T2635-resistant HIV-1 strain) (HIV-1)
[23] = molecular target: gp41 K154Q (T2635-resistant HIV-1 strain) (HIV-1)
[24] = molecular target: NHR peptide N46 (aa 536-581 of NHR) (HIV-1) (UniProt P04578); assay: thermal denaturation followed by circular dichroism

NHR peptide N46 (aa 536-581 of NHR) (HIV-1), sequence (P04578 536-581): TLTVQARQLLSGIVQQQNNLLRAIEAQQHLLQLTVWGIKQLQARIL

HP23 was tested, and the IC50 [1] was 3720 nM.

HP23 (peptide) gave an IC50, inhibition of HIV-1 infection (p24 ELISA), HP23-resistant panel, virus E49K/N126K; blocks gp41 NHR-CHR 6-HB formation [2] of 53.8 nM, an IC50, inhibition of HIV-1 infection (p24 ELISA), T20-resistant panel, virus WT; blocks gp41 NHR-CHR 6-HB formation [3] of 3.1 nM and an IC50, inhibition of HIV-1 infection (p24 ELISA), T20-resistant panel, virus V38A, N42D; blocks gp41 NHR-CHR 6-HB formation [4] of 2.9 nM. For the same substance, the IC50, inhibition of HIV-1 infection (p24 ELISA), HP23-resistant panel, virus D36G/E49K/N126K; blocks gp41 NHR-CHR 6-HB formation [5] was greater than 60 nM, the IC50, inhibition of HIV-1 infection (p24 ELISA), HP23-resistant panel, virus wild-type; blocks gp41 NHR-CHR 6-HB formation [6] was 3.3 nM and the IC50, inhibition of HIV-1 infection (p24 ELISA), HP23-resistant panel, virus L34S/D36G/E49K/E136G; blocks gp41 NHR-CHR 6-HB formation [7] was greater than 60 nM. The IC50, inhibition of HIV-1 infection (p24 ELISA), HP23-resistant panel, virus E49K; blocks gp41 NHR-CHR 6-HB formation [8] was 13.4 nM, the IC50, inhibition of HIV-1 infection (p24 ELISA), T20-resistant panel, virus V38A; blocks gp41 NHR-CHR 6-HB formation [9] was 2.1 nM and the IC50, inhibition of HIV-1 infection (p24 ELISA), T20-resistant panel, virus V38E, N42S; blocks gp41 NHR-CHR 6-HB formation [10] was 6.2 nM. It also gave an IC50, inhibition of HIV-1 infection (p24 ELISA), T20-resistant panel, virus V38A, N42T; blocks gp41 NHR-CHR 6-HB formation [11] of 1.5 nM, an IC50, inhibition of HIV-1 infection (p24 ELISA), T2635-resistant panel, virus Q79E; blocks gp41 NHR-CHR 6-HB formation [12] of 4.2 nM and an IC50, inhibition of HIV-1 infection (p24 ELISA), T2635-resistant panel, virus Q79E/N126K; blocks gp41 NHR-CHR 6-HB formation [13] of 5.2 nM. The IC50, inhibition of HIV-1 infection (p24 ELISA), T2635-resistant panel, virus H3C; blocks gp41 NHR-CHR 6-HB formation [14] was 5.4 nM, the IC50, inhibition of HIV-1 infection (p24 ELISA), T2635-resistant panel, virus N113E; blocks gp41 NHR-CHR 6-HB formation [15] was 2.3 nM and the IC50, inhibition of HIV-1 infection (p24 ELISA), T2635-resistant panel, virus N126K; blocks gp41 NHR-CHR 6-HB formation [16] was 8.6 nM. For the same substance, the IC50, inhibition of HIV-1 infection (p24 ELISA), T2635-resistant panel, virus A6V; blocks gp41 NHR-CHR 6-HB formation [17] was 1.6 nM, the IC50, inhibition of HIV-1 infection (p24 ELISA), T2635-resistant panel, virus Q66R; blocks gp41 NHR-CHR 6-HB formation [18] was 2.8 nM and the IC50, inhibition of HIV-1 infection (p24 ELISA), T2635-resistant panel, virus wild-type; blocks gp41 NHR-CHR 6-HB formation [19] was 2.8 nM. It also gave an IC50, inhibition of HIV-1 infection (p24 ELISA), T2635-resistant panel, virus Q66R/N113E; blocks gp41 NHR-CHR 6-HB formation [20] of 3.6 nM, an IC50, inhibition of HIV-1 infection (p24 ELISA), T2635-resistant panel, virus K90E/N126K; blocks gp41 NHR-CHR 6-HB formation [21] of 4.2 nM and an IC50, inhibition of HIV-1 infection (p24 ELISA), T2635-resistant panel, virus K90E; blocks gp41 NHR-CHR 6-HB formation [22] of 9.4 nM. It also gave an IC50, inhibition of HIV-1 infection (p24 ELISA), T2635-resistant panel, virus K154Q; blocks gp41 NHR-CHR 6-HB formation [23] of 7.4 nM and a Tm of the 6-HB formed with N46 [24] of 81 °C.
